Experimental data published in publication PMC4241985.

Target: transmembrane domain of Thermus thermophilus MgtE (278-450) (Thermus thermophilus) (UniProt Q5SMG8)
Assay: crystal structure

## transmembrane domain of Thermus thermophilus MgtE (278-450) (from UniProt Q5SMG8 278-450) (domain or fragment)
  stoichiometry N: 2
